Experiment [1] deals with T1, N-terminal 22-kDa fragment of apoE4 (aa 1-191) (human, UniProt P02649 19-209).
T1 construct: Range 1-191 is in apoE (299-residue) numbering
T1 chain: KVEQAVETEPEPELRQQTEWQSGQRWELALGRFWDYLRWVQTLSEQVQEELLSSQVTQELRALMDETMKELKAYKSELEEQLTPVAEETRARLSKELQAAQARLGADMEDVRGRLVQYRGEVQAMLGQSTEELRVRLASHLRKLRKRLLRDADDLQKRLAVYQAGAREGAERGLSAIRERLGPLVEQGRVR
Put plainly: ELISA on coated fragment. As to the method: (§1) ApoE ELISA. […] Wells were washed several times with wash buffer (PBS containing 0.1% bovine serum albumin (BSA)) and blocked for 1 h with 4% BSA in PBS. All incubations were performed at room temperature. […] Secondary antibodies against goat or mouse IgG labeled with horse radish peroxidase (HRP) diluted in blocking buffer were added to the wells after several washes and incubated for 1 h. […] substrate (Thermo-Pierce) was used to visualize the amount of bound secondary antibody at 450 nm on a SpectraMax190 plate reader (Molecular Devices) using Softmax Pro software for data collection.
(§2) A, A schematic of different functional domains of human apoE. […] All experiments were performed in triplicate. Values are mean±SD. OD, optical density.
(ELISA stands for enzyme-linked immunosorbent assay.)

The target of experiment [2] is T2, N-terminal 22-kDa fragment of apoE3 (aa 1-191) (human, UniProt P02649 19-209).
T2 construct: Range 1-191 is in apoE (299-residue) numbering
Put plainly: ELISA on coated fragment. As to the method: as §1, §2

Experiment [3] addresses T3, DMPC-lipidated apoE3 (DMPC:apoE=4:1) (human, UniProt P02649 19-317).
T3 construct: Same protein as m3, in complex with dimyristoyl phosphatidylcholine (not covalent)
Put plainly: ELISA; lipid-free or DMPC-lipidated apoE coated (50 ng protein/well). As to the method: (§3) Preparation of apoE and DMPC complex. Dimyristoyl phosphatidylcholine (DMPC) (Avanti Polar Lipids, Alabaster, Ala.) was used at a concentration of 20 mg/ml dissolved into phosphate-buffered saline (PBS). DMPC solution was sonicated for 6 min per cycle until the solution became clear and centrifuged at 14,000 rpm for 2 min to pellet debris. ApoE was then added to obtain various final stock concentrations and allowed to incubate at 23.7° C. overnight before use in enzyme-linked immunosorbent assay (ELISA) experiments.
as §1
(§4) All experiments were performed in triplicate. Values are mean±SD. OD, optical density.

The target in experiment [4] is T4, DMPC-lipidated apoE4 (DMPC:apoE=4:1) (human, UniProt P02649 19-317).
T4 construct: Same protein as m2, in complex with dimyristoyl phosphatidylcholine (not covalent)
The description is as above. Here is the method:
as §3, §1, §4

The target in experiment [5] is T5, recombinant human apolipoprotein E4, full length (human, UniProt P02649 19-317).
T5 construct: Recombinant protein in ELISA; expressed in transfected Neuro-2a or C6 cells for western blot and cell staining; also called apoE4; apoE4(1-299)
Nature of the experiment: ELISA; apoE coated (50 ng/well), 3H1 as primary antibody. As to the method: Secondary antibodies against goat or mouse IgG labeled with horse radish peroxidase (HRP) diluted in blocking buffer were added to the wells after several washes and incubated for 1 h. […] substrate (Thermo-Pierce) was used to visualize the amount of bound secondary antibody at 450 nm on a SpectraMax190 plate reader (Molecular Devices) using Softmax Pro software for data collection.
as §2

In experiment [6] the target is T5, recombinant human apolipoprotein E4, …. Nature of the experiment: inhibition ELISA; apoE preincubated with 3H1 IgG, added to Aβ1-42-coated wells. As to the method: ApoE and Aβ binding assay. Aβ₁₋₄₂ (Biopeptides) was used to coat the surface of a 96-well plate at 330 ng/well and ELISA was performed essentially as described above. […] Subsequent detection of apoE bound with Aβ was performed with polyclonal anti-apoE, as stated above.
FIGS. 6A and 6B. […] After washing, the binding of apoE to Aβ was detected with polyclonal anti-apoE in an ELISA. […] After incubation, the mixture was added to Aβ₁₋₄₂-coated wells, and the binding of apoE to Aβ was detected with polyclonal anti-apoE after washing. All experiments were performed in triplicate. Values are mean±SD. OD, optical density.

Experiment [7] addresses T6, green fluorescent protein-apoE(231-272) (human, UniProt P02649 249-290, not fully specified).
T6 construct: Expressed in transiently transfected Neuro-2a cells; not shown: green fluorescent protein tag
T6 chain: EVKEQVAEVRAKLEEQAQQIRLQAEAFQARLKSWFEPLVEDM
Nature of the experiment: western blot, transfected Neuro-2a cells. Here is the method: (§5) Cell culture, transfection, and western blotting. Mouse neuroblastoma (Neuro-2a) and astrocytic (C6) cells (American Type Culture Collection, Manassas, Va.) maintained at 37° C. in MEM containing 10% fetal bovine serum (FBS) were transiently transfected with different apoE cDNA constructs using Lipofectamine 2000 (Invitrogen) (Huang et al., 2001). Neuro-2a cells expressing different forms of apoE were collected in a low-detergent lysis buffer, separated by sodium dodecyl sulfate-polyacrylamide gel electrophoresis (SDS-PAGE), and immunoblotted for apoE with polyclonal and monoclonal antibodies, as described (Huang et al., 2001).
For orientation: In western blotting, separated proteins are transferred to a membrane and probed.

A further experiment has as its target T7, apoE(1-240) (human, UniProt P02649 19-258).
T7 construct: If 1-244 is right the range is 19-262
Nature of the experiment: western blot, transfected Neuro-2a cells. As to the method: as §5

Another experiment has as its target T8, apoE(1-260) (human, UniProt P02649 19-278).
T8 construct: Expressed in transiently transfected Neuro-2a cells; also called apoE4(1-260)
Nature of the experiment: western blot, transfected Neuro-2a cells. As to the method: as §5

B1: apoE-specific monoclonal antibody 3H1 (antibody, V domains shown)
VH: EVQLVESGGGLVKPGGSLKLSCAASGFTFSSYAMSWVRQTPEKRLEWVATISSGGSYTYYPDSVKGRFTISRDNAKNTLYLQMSSLRSEDTAMYYCARQFYYYGGSYDYFDYWGQGTTLTVS
VL: DIVLTQSPATLSVTPGDSVSLACRASQSISNNLHWYQQKSHESPRLLIKYAYQSISGIPSRFSGSGSGTDFTLSINSVETEDFGMYFCQQSNSWPLTFGVGTKLEIKR
notes: Mouse monoclonal IgG (detected with anti-mouse IgG; used as purified 3H1 IgG); also called 3H1 IgG; purified 3H1 IgG
With B1, the binding result (in [1]; in experiment [2]; in [7]; with apoE(1-240); in the experiment with apoE(1-260)) was “no binding” each time. In experiment [3], the “fold increase of reactivity against lipid-free apoE3” value was about 120 fold. In experiment [4], the “fold increase of reactivity against lipid-free apoE4” value is about 20 fold. Further, in [5], the “fold reactivity against apoE3” value worked out at 9 fold. Also, in [6], the “percent lower IC50 than for apoE3” value was about 90%.

The record behind these values is patent publication US20130017251A1 (J DAVID GLADSTONE INSTITUTES, published 2013).
